In publication PMC5496025, “Abstracts from the 10th C1-inhibitor deficiency workshop” (Allergy, Asthma, and Clinical Immunology : Official Journal …, 2017):

How the values were obtained:
[1] = molecular target: human bradykinin B2 receptor mutant #2 (found in HAE patients) (human) (UniProt P30411); test: radioligand binding; competition binding with radiolabeled BK (3H-BK); HEK293T cells transiently transfected with human wild-type or mutant B2R
[2] = molecular target: human bradykinin B2 receptor mutant #1 (found in HAE patients) (human) (UniProt P30411); test: as above
Sequence of human bradykinin B2 receptor mutant #1 (found in HAE patients) (human) (P30411 whole entry, change not shown): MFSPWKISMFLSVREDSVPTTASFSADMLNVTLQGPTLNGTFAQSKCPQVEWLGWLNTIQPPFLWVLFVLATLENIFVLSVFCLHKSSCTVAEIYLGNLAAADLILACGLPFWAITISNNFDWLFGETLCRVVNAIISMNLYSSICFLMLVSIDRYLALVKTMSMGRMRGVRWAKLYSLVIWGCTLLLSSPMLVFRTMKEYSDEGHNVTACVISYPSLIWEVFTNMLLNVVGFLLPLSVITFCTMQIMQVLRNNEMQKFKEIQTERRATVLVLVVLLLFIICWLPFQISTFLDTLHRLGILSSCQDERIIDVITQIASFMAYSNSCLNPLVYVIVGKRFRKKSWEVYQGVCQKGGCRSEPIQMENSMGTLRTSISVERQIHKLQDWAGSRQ

[3] = molecular target: T1, commercially available active FXI (UniProt P03951 19-625); test: SDS-PAGE of enzyme/C1-INH complexes; molar equivalent quantities of active enzymes and of C1-INH; details: both partners purified
T1 construct: active coagulation factor XI (cleaved into disulfide-linked heavy and light chains); also called active factor XI; source: bought: commercially available
T1 sequence (P03951 19-625): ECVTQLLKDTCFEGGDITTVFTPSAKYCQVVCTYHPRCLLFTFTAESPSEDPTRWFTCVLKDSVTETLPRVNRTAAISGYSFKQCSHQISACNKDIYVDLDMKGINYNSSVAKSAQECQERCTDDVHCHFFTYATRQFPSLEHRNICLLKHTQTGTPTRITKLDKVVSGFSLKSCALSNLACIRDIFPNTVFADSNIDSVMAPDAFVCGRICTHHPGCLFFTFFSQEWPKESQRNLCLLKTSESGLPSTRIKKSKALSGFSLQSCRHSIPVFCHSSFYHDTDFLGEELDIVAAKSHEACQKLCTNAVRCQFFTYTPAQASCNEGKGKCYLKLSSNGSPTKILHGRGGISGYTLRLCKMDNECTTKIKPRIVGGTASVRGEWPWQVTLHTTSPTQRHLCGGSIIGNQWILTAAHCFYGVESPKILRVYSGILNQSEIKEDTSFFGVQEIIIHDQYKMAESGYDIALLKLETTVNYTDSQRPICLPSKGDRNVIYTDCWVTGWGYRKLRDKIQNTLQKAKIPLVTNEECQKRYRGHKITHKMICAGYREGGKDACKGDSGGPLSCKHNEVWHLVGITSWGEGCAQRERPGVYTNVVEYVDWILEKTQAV

Sequence of Bradykinin (P01042 whole entry, looked up): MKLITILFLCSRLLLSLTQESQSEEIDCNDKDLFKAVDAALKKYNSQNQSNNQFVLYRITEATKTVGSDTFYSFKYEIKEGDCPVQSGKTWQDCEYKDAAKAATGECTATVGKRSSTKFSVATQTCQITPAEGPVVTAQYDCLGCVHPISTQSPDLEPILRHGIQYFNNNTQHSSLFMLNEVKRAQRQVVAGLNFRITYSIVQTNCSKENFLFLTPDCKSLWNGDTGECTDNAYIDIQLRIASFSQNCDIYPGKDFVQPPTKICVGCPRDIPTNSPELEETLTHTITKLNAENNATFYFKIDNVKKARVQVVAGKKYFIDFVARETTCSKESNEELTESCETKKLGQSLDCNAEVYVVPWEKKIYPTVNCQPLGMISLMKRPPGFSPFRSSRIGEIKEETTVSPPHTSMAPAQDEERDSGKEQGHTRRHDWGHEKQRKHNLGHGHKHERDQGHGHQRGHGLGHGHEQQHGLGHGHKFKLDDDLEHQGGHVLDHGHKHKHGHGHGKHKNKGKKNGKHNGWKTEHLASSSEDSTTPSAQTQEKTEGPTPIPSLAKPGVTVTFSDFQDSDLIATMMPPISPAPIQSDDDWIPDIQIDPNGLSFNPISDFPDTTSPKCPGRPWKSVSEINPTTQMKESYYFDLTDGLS
Sequence of human bradykinin B2 receptor mutant #2 (found in HAE patients) (human) (P30411 whole entry, stated change not applied): as the sequence (P30411 whole entry, change not shown) above

Molecule | affinity [1] [nM] | affinity [2] [nM] | binding result [3]
Bradykinin (from UniProt P01042 381-389) (peptide) | 0.46 | 0.35 | 
commercial plasma-derived C1-INH, further purified by ion-exchange chromatography (natural protein, UniProt P05155 23-500, looked up, source: bought: commercial plasma-derived C1-INH, further purified by ion-exchange chromatography) NPNATSSSSQDPESLQDRGEGKVATTVISKMLFVEPILEVSSLPTTNSTTNSATKITANTTDEPTTQPTTEPTTQPTIQPTQPTTQLPTDSPTQPTTGSFCPGPVTLCSDLESHSTEAVLGDALVDFSLKLYHAFSAMKKVETNMAFSPFSIASLLTQVLLGAGENTKTNLESILSYPKDFTCVHQALKGFTTKGVTSVSQIFHSPDLAIRDTFVNASRTLYSSSPRVLSNNSDANLELINTWVAKNTNNKISRLLDSLPSDTRLVLLNAIYLSAKWKTTFDPKKTRMEPFHFKNSVIKVPMMNSKKYPVAHFIDQTLKAKVGQLQLSHNLSLVILVPQNLKHRLEDMEQALSPSVFKAIMEKLEMSKFQPTLLTLPRIKVTTSQDMLSIMEKLEFFDFSYDLNLCGLTEDPDLQVSAMQHQTVLELTETGVEAAAASAISVARTLLVFEVQQPFLFVLWDQQHKFPVFMGRVYDPRA |  |  | binds
